T1: BcUGlcAE (Bacillus cytotoxicus, UniProt A7GQD3)
T1 sequence (A7GQD3 1-314): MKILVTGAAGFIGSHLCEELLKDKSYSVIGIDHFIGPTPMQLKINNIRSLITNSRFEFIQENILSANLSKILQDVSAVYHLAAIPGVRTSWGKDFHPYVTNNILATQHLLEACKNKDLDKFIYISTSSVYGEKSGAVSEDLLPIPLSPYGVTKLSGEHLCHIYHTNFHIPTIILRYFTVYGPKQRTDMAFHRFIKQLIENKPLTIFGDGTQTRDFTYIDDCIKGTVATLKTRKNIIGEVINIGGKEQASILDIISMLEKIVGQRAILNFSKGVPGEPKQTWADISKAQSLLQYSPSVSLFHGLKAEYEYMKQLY

B1: BcUGlcAE (Bacillus cytotoxicus NVH 391-98) (protein)
chain: T1 sequence (A7GQD3 1-314)

Columns and labels:
[1] = target: T1, BcUGlcAE; test: HPLC product assay, inhibition; type: biochemical; settings: 1 mM UDP-GlcA, 1 mM NAD+, 50 mM phosphate pH 7.6, 37 °C
[2] = substrate: O=C(O)[C@H]1O[C@H](OP(=O)(O)OP(=O)(O)OC[C@H]2O[C@@H](n3ccc(=O)[nH]c3=O)[C@H](O)[C@@H]2O)[C@H](O)[C@@H](O)[C@@H]1O; test: HPLC; type: biochemical, Bacillus cytotoxicus; settings: 1 mM NAD+, 50 mM sodium phosphate pH 7.6, 37 °C
[3] = substrate: Cc1cn([C@H]2C[C@H](O)[C@@H](COP(=O)(O)OP(=O)(O)O[C@H]3O[C@H](C(=O)O)[C@@H](O)[C@H](O)[C@H]3O)O2)c(=O)[nH]c1=O; test: HPLC; type: biochemical, Bacillus cytotoxicus; settings: 1 mM NAD+, 50 mM sodium phosphate pH 7.6, 37 °C

Molecule	inhibition [1]	Km [2] [mM]	kcat [2] [s⁻¹]	kcat/Km [2] [M⁻¹ s⁻¹]	Km [3] [mM]	kcat [3] [s⁻¹]	kcat/Km [3] [M⁻¹ s⁻¹]
O=c1ccn([C@@H]2O[C@H](COP(=O)(O)OP(=O)(O)O[C@H]3OC[C@@H](O)[C@H](O)[C@H]3O)[C@@H](O)[C@H]2O)c(=O)[nH]1 [UDP-Xyl]	the epimerase was highly inhibited by UDP and to a lesser extent by UDP-Xyl	–	–	–	–	–	–
O=c1ccn([C@@H]2O[C@H](COP(=O)(O)OP(=O)(O)O)[C@@H](O)[C@H]2O)c(=O)[nH]1 [UDP]	the epimerase was highly inhibited by UDP and to a lesser extent by UDP-Xyl	–	–	–	–	–	–
B1	–	0.12 ± 0.01	3.2 ± 0.1	26000 ± 1400	0.18 ± 0.01	2.1 ± 0.1	12000 ± 400
